Data taken from patent US20240336672A1 (INSTITUT PASTEUR, published 2024).
Positions count from the first letter of the chain named.

B1: Cv2.3194 (recombinant human IgG1) (antibody, V domains shown)
VH: EVQLVESGGGLIQPGGSLRLSCAASGITVTSNYMSWVRQAPGKGLEWVSVIYPGGSTFYADSVKGRFTISRDNSKNTLYLQMNSLRAEDTAVYYCARDLVVYGMDVWGQGTTVTVSS
VL: EIVLTQSPGTLSLSPGERATLSCRASQSVSSSYLAWYQQKPGQAPRLLIYGASSRATGIPGRFSGSGSGTDFTLTISRLEPEDFAIYYCQQGVTFGGGTKVEIKR
B2: Cv2.3235 (recombinant human IgG1) (antibody, V domains shown)
VH: B1 VH with I27F, T30S, S31R, P53S, L99G, V100D, V101Y
VL: DIQMTQSPSFLSASVGDRVTITCRASQGISSFLAWYQQKPGKAPKLLIYGASTLQSGVTSRFSGSGSGTEFTLTISSLQPEDFATYYCQRLDSYPPITFGQGTRLEIKR
B3: Cv2.5213 (recombinant human IgG1) (antibody, V domains shown)
VH: B1 VH with I27F, T30S, V50L, P53S, F58Y, V100N, V101Y, T111A
VL: DIQMTQSPSSLSASVGDRVTITCRASQGISSYLAWYQQKPGKAPKLLIYAASTLQSGVPSRFSGSGSGTDFTLTISSLQPEDFATYYCQQLDSYSPFTFGPGTKVDIKR
B4: Cv2.1169 (recombinant human IgG1) (antibody)
heavy: QVQLVQSGPEVKKPGTSVKVSCKASGFTFTTSAVQWVRQARGQRLEWIGWIVVGSGNTNYAQKFQERVTITRDMSTTTAYMELSSLRSEDTAVYYCAAPYCSGGTCLDGFDIWGQGTMVTVSSASTKGPSVFPLAPSSKSTSGGTAALGCLVKDYFPEPVTVSWNSGALTSGVHTFPAVLQSSGLYSLSSVVTVPSSSLGTQTYICNVNHKPSNTKVDKKVEPKSCDKTHTCPPCPAPELLGGPSVFLFPPKPKDTLMISRTPEVTCVVVDVSHEDPEVKFNWYVDGVEVHNAKTKPREEQYNSTYRVVSVLTVLHQDWLNGKEYKCKVSNKALPAPIEKTISKAKQPREPQVYTLPPSRDELTKNQVSLTCLVKGFYPSDIAVEWESNGQPENNYKTTPPVLDSDGSFFLYSKLTVDKSRWQQGNVFSCSVMHEALHNHYTQKSLSLSPGK
light: not shown
notes: also called Cv2.1169 IgG
B5: Cv2.1353 (recombinant human IgG1) (antibody, V domains shown)
VH: EVQLVESGGGLVQPGGSLRLSCAASGVTVSSNYMNWVRQAPGKGLEWVSVIYSGGSTFYADSVKGRFIISRDNSKNTLYLQMNSLKTEDTAVYYCARDLGPMGFDIWGQGTMVTVSS
VL: B3 VL with S10F, D70E, D92N, Y94D, S95P, F97V

Legend:
[1] = target: T1, CoV-HKU1 Spike ectodomain (HKU1-CoV, UniProt Q0ZME7 14-1276); assay: ELISA, coated antigen; note: test concentration or dose not given here
T1 chain: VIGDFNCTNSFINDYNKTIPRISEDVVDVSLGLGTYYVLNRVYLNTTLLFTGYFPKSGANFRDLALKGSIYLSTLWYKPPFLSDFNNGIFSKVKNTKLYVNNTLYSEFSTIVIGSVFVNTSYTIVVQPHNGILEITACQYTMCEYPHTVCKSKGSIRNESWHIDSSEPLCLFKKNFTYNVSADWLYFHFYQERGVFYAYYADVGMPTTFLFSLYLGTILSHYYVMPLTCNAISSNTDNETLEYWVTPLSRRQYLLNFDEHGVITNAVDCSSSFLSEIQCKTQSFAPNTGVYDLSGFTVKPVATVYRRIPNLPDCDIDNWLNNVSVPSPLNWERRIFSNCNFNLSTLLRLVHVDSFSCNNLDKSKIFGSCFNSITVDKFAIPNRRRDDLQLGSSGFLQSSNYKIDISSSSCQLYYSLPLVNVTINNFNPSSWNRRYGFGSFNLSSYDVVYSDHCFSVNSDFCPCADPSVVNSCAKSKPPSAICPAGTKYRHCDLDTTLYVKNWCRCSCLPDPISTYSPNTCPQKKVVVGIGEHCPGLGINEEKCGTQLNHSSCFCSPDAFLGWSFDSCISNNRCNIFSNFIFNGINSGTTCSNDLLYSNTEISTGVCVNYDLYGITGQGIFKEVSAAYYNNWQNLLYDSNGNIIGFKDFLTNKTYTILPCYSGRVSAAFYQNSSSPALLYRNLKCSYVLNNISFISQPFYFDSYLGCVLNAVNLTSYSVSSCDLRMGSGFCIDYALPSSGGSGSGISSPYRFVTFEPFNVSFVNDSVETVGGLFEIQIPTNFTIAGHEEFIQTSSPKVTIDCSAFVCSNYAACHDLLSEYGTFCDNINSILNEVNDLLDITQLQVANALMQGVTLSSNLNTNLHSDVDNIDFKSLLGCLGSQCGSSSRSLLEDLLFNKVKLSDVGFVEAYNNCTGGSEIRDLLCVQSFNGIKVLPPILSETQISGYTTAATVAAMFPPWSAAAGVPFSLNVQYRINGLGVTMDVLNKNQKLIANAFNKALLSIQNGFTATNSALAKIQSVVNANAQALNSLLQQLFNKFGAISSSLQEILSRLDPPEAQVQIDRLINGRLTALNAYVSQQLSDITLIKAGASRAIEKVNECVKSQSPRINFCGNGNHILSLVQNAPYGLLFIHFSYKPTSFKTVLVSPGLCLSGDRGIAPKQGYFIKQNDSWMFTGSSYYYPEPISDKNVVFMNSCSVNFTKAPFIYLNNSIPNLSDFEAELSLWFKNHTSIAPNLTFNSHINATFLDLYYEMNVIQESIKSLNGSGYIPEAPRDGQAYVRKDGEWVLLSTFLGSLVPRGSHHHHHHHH

[2] = target: T2, CoV-229E Spike ectodomain (229E-CoV, UniProt P15423 16-1113); assay: ELISA, coated spike ectodomain
T2 chain: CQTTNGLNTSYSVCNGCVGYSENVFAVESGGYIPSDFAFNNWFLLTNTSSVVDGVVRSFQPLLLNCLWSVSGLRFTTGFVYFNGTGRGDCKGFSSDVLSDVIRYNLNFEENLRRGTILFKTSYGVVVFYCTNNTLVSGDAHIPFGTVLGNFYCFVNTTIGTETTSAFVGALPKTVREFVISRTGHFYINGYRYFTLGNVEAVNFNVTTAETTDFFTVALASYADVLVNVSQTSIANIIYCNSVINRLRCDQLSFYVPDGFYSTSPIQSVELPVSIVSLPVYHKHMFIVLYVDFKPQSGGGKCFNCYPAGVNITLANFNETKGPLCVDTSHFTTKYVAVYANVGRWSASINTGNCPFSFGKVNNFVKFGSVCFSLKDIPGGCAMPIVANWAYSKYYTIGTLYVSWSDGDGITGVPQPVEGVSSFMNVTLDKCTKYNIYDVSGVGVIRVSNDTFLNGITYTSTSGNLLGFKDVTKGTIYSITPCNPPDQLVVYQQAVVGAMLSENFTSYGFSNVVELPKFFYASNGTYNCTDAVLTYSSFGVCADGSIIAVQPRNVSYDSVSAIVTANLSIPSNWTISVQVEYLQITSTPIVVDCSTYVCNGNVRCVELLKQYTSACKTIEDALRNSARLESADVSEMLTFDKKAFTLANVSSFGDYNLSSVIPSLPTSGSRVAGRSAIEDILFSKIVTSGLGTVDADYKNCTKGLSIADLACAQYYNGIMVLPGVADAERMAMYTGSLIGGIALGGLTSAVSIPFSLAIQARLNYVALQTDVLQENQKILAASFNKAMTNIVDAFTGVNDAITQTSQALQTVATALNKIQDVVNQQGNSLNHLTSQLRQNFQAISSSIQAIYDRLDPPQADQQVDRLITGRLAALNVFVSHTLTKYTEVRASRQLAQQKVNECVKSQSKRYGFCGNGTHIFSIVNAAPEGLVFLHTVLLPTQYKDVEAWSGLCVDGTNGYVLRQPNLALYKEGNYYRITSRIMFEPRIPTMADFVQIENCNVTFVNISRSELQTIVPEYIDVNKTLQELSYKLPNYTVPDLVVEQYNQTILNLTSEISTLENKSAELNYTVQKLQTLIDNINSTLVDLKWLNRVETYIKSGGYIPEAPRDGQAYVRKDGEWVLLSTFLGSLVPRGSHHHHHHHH

[3] = target: T1, CoV-HKU1 Spike ectodomain; assay: ELISA, coated spike ectodomain

Binder	ELISA OD [1]	binding result [2]	binding result [3]
B1	0.1 OD	no binding	no binding
B2	0.2 OD	no binding	no binding
B3	0.1 OD	no binding	no binding
B4	0.1 OD	no binding	no binding
B5	0.1 OD	no binding	no binding
